According to patent US20210054027:

MMP-9 (recombinant human catalytic domain), sequence (chain, as listed by the source): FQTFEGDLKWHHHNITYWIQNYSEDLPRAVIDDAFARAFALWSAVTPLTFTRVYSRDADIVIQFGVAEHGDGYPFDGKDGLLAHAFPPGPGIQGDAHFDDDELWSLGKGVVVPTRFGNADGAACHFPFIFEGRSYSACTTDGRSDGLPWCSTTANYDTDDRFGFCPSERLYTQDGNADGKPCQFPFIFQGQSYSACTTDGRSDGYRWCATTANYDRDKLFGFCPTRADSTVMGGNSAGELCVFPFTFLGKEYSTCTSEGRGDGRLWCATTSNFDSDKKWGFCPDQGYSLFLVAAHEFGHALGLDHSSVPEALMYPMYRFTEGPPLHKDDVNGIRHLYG

## Thermolysin
Rho-KLDLCyclic
Rho-KLDLCyclic, sequence (chain, as listed by the source): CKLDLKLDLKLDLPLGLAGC
  enzymatic cleavage of progelator (TEM fibers, CD): Despite the promiscuous activity of thermolysin, incubation with Rho-KLDLCyclic and Rho-KFDFCyclic induced fiber formation by TEM
Rho-KFDFCyclic
Rho-KFDFCyclic, sequence (chain, as listed by the source): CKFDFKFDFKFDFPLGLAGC
  enzymatic cleavage of progelator (TEM fibers, CD): Despite the promiscuous activity of thermolysin, incubation with Rho-KLDLCyclic and Rho-KFDFCyclic induced fiber formation by TEM

## MMP-9 (recombinant human catalytic domain)
Rho-KLDLCyclic
  enzymatic cleavage of progelator (visible aggregation, TEM fibers): Enzymatic cleavage by active MMP-9 and elastase (FIGS. 20a-20d) induced visible aggregation in the reaction vial and entangled fibrous meshes by TEM, whereas denatured enzymes elicited no response
Rho-KFDFCyclic
  enzymatic cleavage of progelator (visible aggregation, TEM fibers): Enzymatic cleavage by active MMP-9 and elastase (FIGS. 20a-20d) induced visible aggregation in the reaction vial and entangled fibrous meshes by TEM, whereas denatured enzymes elicited no response
KLDLCyclic
  enzymatic cleavage of progelator (data not shown): KFDFCyclic and KLDLCyclic (data not shown) were treated with MI-associated enzymes, MMP-9 and elastase to confirm enzyme responsiveness
KFDFCyclic
  enzymatic cleavage of progelator (LCMS, 5 hr): KFDFCyclic and KLDLCyclic (data not shown) were treated with MI-associated enzymes, MMP-9 and elastase to confirm enzyme responsiveness
